Residue numbers refer to the chain shown, from its start.
T1: human TIM-3 protein on human PBMC (human, UniProt Q8TDQ0 22-301)
T1 sequence: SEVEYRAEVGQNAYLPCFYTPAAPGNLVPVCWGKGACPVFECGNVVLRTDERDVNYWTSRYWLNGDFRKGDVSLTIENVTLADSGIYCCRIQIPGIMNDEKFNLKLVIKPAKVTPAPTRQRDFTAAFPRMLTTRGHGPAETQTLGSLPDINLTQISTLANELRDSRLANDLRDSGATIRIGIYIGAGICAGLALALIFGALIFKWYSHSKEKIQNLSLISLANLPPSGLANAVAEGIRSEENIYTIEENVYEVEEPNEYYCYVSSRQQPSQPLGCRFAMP

T2: human TIM-3 ECD (antigen protein of the affinity test) (human, UniProt Q8TDQ0 22-200)
T2 sequence: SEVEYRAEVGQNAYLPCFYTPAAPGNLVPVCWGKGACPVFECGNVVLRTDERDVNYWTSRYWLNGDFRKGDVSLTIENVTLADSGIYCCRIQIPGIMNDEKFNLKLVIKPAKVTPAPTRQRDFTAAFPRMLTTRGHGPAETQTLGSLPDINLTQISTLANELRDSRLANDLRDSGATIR

T3: murine TIM-3 protein with hFc tag (mTIM-3-hFc protein) (mouse; human, UniProt Q8VIM0 29-191)
T3 construct: Made in HEK293 cells; also called mouse TIM-3 extracellular domain protein; not shown: human IgG Fc fragment (hFc) of the pCpC vector
T3 chain: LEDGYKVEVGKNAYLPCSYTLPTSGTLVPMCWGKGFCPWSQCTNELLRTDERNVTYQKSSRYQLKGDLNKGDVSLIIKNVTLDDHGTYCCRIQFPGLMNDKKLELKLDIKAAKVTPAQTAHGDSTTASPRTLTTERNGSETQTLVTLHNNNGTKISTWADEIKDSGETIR

B1: fully human TIM-3 antibody 215A8F2 (antibody, human IgG4, V domains shown)
VH: QVQLQQWGAGLLKPSETLSLTCTVYGGSFSGYYWNWIRQPPGKGLEWLGEINHSGSTNYNPSLKRRVTISVDTSKNQFSLKLSSVTAADTAVYYCARVYYYGPFDFWGQGTLVTVSS
VL: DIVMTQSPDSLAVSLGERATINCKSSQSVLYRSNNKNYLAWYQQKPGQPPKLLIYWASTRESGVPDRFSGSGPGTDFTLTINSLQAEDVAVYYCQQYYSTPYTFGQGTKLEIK
notes: also called antibody number 4
B2: fully human TIM-3 antibody 18D2H2 (antibody, human IgG4, V domains shown)
VH: EVQLVESGGDLVQPGGSLRLSCAASGFTFSTYWMTWVRQAPGRGLEWVANIKQDGSAKYYVDSVKGRFTLSRDDAKNSLYLQMNSLRAEDTAVYYCARGSNWFDYWGQGTLVTVSS
VL: ETVMTQSPATLSVSPGERATLSCRANQNVYSNLAWYQQKPGQAPRLLIYDASTRATGFPARFSGSGSGTEFTLTISSLQSEDFAVYYCQQYNNWPLTFGGGTKVEIK
notes: also called antibody number 2
B3: fully human TIM-3 antibody 39E5H1 (antibody, human IgG4, V domains shown)
VH: EVQLVESGGGLVQPGGSLRLSCAASGFTFSSYWMSWVRQAPGKGLEWVANIKRGGSERYYVDSVKGRFTISGDNAKNSVYLQMNSLRAEDTAVYYCARGSNWFDPWGQGTLVTVSS
VL: B2 VL with T10I, N26S, N28S, P40L, F58I, L96I, G100Q, K103R, V104L
notes: also called antibody number 6
B4: 57F4E5 fully human TIM-3 antibody (human IgG4, kappa) (antibody, V domains shown)
VH: EVQLVESGGGLVQPGGSLRLSCAASGFTFSSYWMSWVRQAPGKGLEWVANIKQDGSEKYYVDSVKGRFTISRDSAKNSLYLQMNSLRAEDTAMYFCARDSNFFDYWGQGTLVTVSS
VL: B2 VL with N26S, N28S, Y30S, Q38R, D50F, A51S, F58I
B5: 39E5H1 fully human TIM-3 antibody (human IgG4, kappa) (antibody, V domains shown)
VH: B3 VH
VL: B2 VL with T10I, N26S, N28S, P40L, F58I, L96I, G100Q, K103R, V104L
B6: fully human TIM-3 antibody 57F4E5 (antibody, human IgG4, V domains shown)
VH: B4 VH
VL: B2 VL with N26S, N28S, Y30S, Q38R, D50F, A51S, F58I
notes: also called antibody number 7
B7: fully human TIM-3 antibody 34B6D8 (antibody, human IgG4, V domains shown)
VH: B3 VH with S31T, S35T, G44R, R53Q, S56G, E57D, R58K, G72T, V79L
VL: EIVMTQSPATLSMSPGERATLSCRASQSVYDNLAWYQQKPGQAPRLLIYGASTRATGIPARFSGSGSGTEFTLTISSLQSEDFALYYCQQYTHWPITFGQGTRLEIK
notes: also called antibody number 5
B8: fully human TIM-3 antibody 134H3G6 (antibody, human IgG4, V domains shown)
VH: EVQLVESGGGLVQPGGSLRLSCAASGFTFSNSWMTWVRQAPGKGLEWVANIKQAGTEKYYVDSVKGRFTISRDNAKNSLYLQMNSLRAEDTAVYYCNSGSNYFDYWGQGTLVTVSS
VL: B2 VL with T2I, N26R, V29F, D50G, F58I
notes: also called antibody number 3
B9: 34B6D8 fully human TIM-3 antibody (human IgG4, kappa) (antibody, V domains shown)
VH: B3 VH with S31T, S35T, G44R, R53Q, S56G, E57D, R58K, G72T, V79L
VL: B7 VL
B10: fully human TIM-3 antibody 7A4F10 (antibody, human IgG4, V domains shown)
VH: EVQLLESGGGLVQPGGSLRLSCAASGFTFRTHLISWVRQAPGKGLEWVAAITGSGGSTYYADSVKGRFIISRDNSKNTLFLQMNSLRAEDTAVYYCAKDGGSGSYDDFWGQGTLVTVSS
VL: ETVLTQSPVTLSLSPGERATLSCRASQSVGSYLAWYQQKPGQAPRLLIYDASNRATGIPARFSGSGSGTDFTLTISSLEPEDFAVYYCQQRSNWPPTFGQGTKVEIK
notes: also called antibody number 1

Tests used:
[1] = target: T1, human TIM-3 protein on human PBMC; assay: cell-based or functional assay
[2] = target: T2, human TIM-3 ECD (antigen protein of the …); assay: AHC sensor kinetics, antibody captured on sensor, antigen protein in solution, global 1:1 fit
Description: First, AHC sensor was selected, and the sensor was balanced with buffer solution for 10 min, then the antibody to be tested was diluted to 5 μg/ml with buffer solution, and the antibody was solidified with the sensor for 3-5 min, with a signal value of 1-2 nm. The sensor was balanced again with buffer solution for 3 minutes, and then the antigen protein was diluted to 100 nM (the highest concentration was tentatively 100 nM) to bind and dissociate the antibody coupled by the sensor. If enough signal value was obtained, the antigen protein was diluted by several concentration gradients to analyze the binding and dissociation of antibody and antigen. At that end of each cycle, the sensor surface was regenerated with 10 mM, pH 1.5 Glycine. The kinetic rate constant needed to be subtracted the blank control, and the data was fitted with the global fit analysis method 1:1 combination model. The dissociation equilibrium rate constant (KD) was calculated according to the following formula: KD=kd/ka.

[3] = target: T3, murine TIM-3 protein with hFc tag …; assay: ELISA, coated mTIM-3-hFc

Row | Binder | IFN-γ production, lymphocyte activation assay (donor Y), antibody 0.1 µg/ml, N = 1 [1] [pg/mL] | IFN-γ production, lymphocyte activation assay (donor Y), antibody 0.1 µg/ml, N = 2 [1] [pg/mL] | IFN-γ production, lymphocyte activation assay (donor Y), antibody 1 µg/ml, N = 1 [1] [pg/mL] | IFN-γ production, lymphocyte activation assay (donor Y), antibody 1 µg/ml, N = 2 [1] [pg/mL] | IFN-γ production, lymphocyte activation assay (donor Y), antibody 10 µg/ml, N = 1 [1] [pg/mL] | IFN-γ production, lymphocyte activation assay (donor Y), antibody 10 µg/ml, N = 2 [1] [pg/mL] | IFN-γ production, lymphocyte activation assay (donor Y), antibody concentration head printed '0' (fifth), N = 1 [1] [pg/mL] | IFN-γ production, lymphocyte activation assay (donor Y), antibody concentration head printed '0' (fifth), N = 2 [1] [pg/mL] | IFN-γ production, lymphocyte activation assay (donor Y), antibody concentration head printed '0' (fourth), N = 1 [1] [pg/mL] | IFN-γ production, lymphocyte activation assay (donor Y), antibody concentration head printed '0' (fourth), N = 2 [1] [pg/mL] | Kd [2] [nM] | koff [2] [s⁻¹] | kon [2] [M⁻¹ s⁻¹] | binding result [3]
1 | B1 | 2600 | 2340 | 3320 | 2560 | 3140 | 2790 | 2380 | 2070 | 1990 | 2000 | 0.133 | 0.000128 | 965000 | –
2 | B2 | 2540 | 2750 | 3110 | 2860 | 3050 | 3130 | 2130 | 2050 | 2200 | 2240 | 2.58 | 0.00313 | 1.22e+06 | –
3 | B3 | 2710 | 2710 | 3400 | 3600 | 3500 | 4120 | 1840 | 2100 | 2090 | 1950 | 1.46 | 0.00155 | 1.06e+06 | –
4 | B4 | – | – | – | – | – | – | – | – | – | – | – | – | – | no binding (tested: 66.667 nM)
5 | B5 | – | – | – | – | – | – | – | – | – | – | – | – | – | no binding (tested: 66.667 nM)
6 | B6 | 3210 | 2870 | 3550 | 3610 | 3960 | 3660 | 2150 | 2100 | 2310 | 2050 | 2.48 | 0.00397 | 1.6e+06 | –
7 | B7 | 2890 | 2900 | 3050 | 3830 | 3520 | 3630 | 1820 | 2040 | 2130 | 2300 | 1.05 | 0.0012 | 1.15e+06 | –
8 | B8 | 2220 | 2550 | 3200 | 3230 | 3400 | 3910 | 1810 | 2120 | 2030 | 2260 | 4.05 | 0.00483 | 1.19e+06 | –
9 | B9 | – | – | – | – | – | – | – | – | – | – | – | – | – | no binding (tested: 66.667 nM)
10 | B10 | 3150 | 3220 | 3330 | 3220 | 3340 | 3890 | 2180 | 2090 | 2250 | 2160 | 1.01 | 0.00113 | 1.11e+06 | –

Reference: patent US20220033501A1 (SHANGHAI PHARMAEXPLORER, published 2022)
